The target of experiment [1] is T1, E4-Fc (amino acids 1-497 of ErbB4 joined to the IgG2Fc portion) (UniProt Q15303 26-522; P01859 104-326 = IgG part).
T1 construct: range 1-497;domain: IgG2Fc; Control trap; The 1-497 range counts on mature ErbB4 without the signal peptide; also called ErbB4-IgGFc
The experiment in a line: trap coated on 96 well plate, varying HRG1β, detection antibody; Std Error Kd 2.92 nM. The protocol: (§1) Purified trap molecules were coated on 96 well plates and incubated with either TGFα or HRG1β. Then detection antibodies against TGFα or HRG1β were used to measure the affinity (Kd) and amount of bound ligand (Bmax).
(§2) Traps were coated on 96 well plates and incubated with varying concentrations of either TGFα or HRG1β. Detection antibodies against TGFα or HRG1β were used to measure the affinity (Kd) and amount of bound ligand (Bmax).

For experiment [2], the target named is T1, E4-Fc (amino acids 1-497 of ErbB4 …). The experiment in a line: trap coated on 96 well plate, varying HRG1β, detection antibody; Std Error Kd 3.128 nM. The protocol: as §1, §2

From patent US20150247135A1 (LIGACEPT, published 2015) come the findings set out here.

T1 sequence (Q15303 other isoform, or with tags, fused parts or gaps limits assumed): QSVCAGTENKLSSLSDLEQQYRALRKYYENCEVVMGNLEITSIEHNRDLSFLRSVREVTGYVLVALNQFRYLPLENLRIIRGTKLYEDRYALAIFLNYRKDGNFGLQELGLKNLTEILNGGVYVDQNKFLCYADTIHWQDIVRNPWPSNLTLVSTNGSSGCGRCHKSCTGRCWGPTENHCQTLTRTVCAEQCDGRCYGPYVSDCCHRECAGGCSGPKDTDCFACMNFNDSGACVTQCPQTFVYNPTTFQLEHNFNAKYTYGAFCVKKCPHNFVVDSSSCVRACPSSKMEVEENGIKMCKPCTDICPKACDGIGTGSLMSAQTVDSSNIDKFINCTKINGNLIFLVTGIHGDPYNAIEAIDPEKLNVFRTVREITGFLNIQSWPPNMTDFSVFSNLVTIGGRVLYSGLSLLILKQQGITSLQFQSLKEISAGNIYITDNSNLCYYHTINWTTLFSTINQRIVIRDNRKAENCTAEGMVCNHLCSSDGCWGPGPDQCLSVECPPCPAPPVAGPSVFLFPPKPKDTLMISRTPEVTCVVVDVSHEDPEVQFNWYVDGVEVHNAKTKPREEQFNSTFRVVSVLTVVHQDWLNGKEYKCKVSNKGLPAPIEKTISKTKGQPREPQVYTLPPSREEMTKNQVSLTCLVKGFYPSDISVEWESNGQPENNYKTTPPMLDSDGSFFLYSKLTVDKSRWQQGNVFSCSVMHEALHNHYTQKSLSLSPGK

B1: HRG1β (ligand, UniProt Q02297-6 177-241, looked up)
chain: SHLVKCAEKEKTFCVNGGECFMVKDLSNPSRYLCKCPNEFTGDRCQNYVMASFYKHLGIEFMEAE
notes: Soluble ligand incubated with the coated traps; also called heregulin
In general, Kd refers to the equilibrium constant for the complex coming apart. Turning to B1, the values for the Kd in experiment [1] and in experiment [2] were 21.2 nM and 14.5 nM, respectively.
